Measured values from PMC10823521.

Target: H3·H4 heterodimer (human H3.3 and H4) (human) (UniProt P84243)
Test: high-speed atomic force microscopy; purified nucleosomes, hexasomes and de novo tetrasomes on 601 DNA (200W100), 1.5-3.5 nM, on bare mica, imaged in 10-fold-diluted buffer A at 1-2 fps, room temperature; histone core volume tracked over time; DNA present

H3·H4 heterodimer (human H3.3 and H4) (from UniProt P84243 1-136; P62805 1-103) (complex)
observation time until one H3·H4 dimer was dislodged from a de novo tetrasome: 2 min
